This passage reports percent of parent, co-precipitation relative to wild-type eRF1 and co-precipitation relative to wild-type eRF1, with high copy RLI1 results from article PMC6511868.

Some results are limits rather than exact numbers.

The target of assay [1] is uL23 as bait of the co-IP of Figure 1C (tag not told) (UniProt P04456). Put plainly: co-immunoprecipitation, western blot quantification. Conditions: parent: 100. (In general: A western blot detects proteins with antibodies after separation by electrophoresis.)
The next assay addresses uS3-GFP (S. cerevisiae) (UniProt P05750). As to the kind of experiment: co-IP; yeast lysates; GFP-Trap_A beads (GFP-tagged baits) or IgG-Sepharose (TAP-tagged baits), 3 h at 4°C, western blot; wild type and the strains sup45-2, rat8-2, rat7ΔN shifted to 37°C for 1 h; also 0.5 mg/ml cycloheximide for 30 min; also high copy RLI1.
Chain of UniProt P05750 (P05750 whole entry): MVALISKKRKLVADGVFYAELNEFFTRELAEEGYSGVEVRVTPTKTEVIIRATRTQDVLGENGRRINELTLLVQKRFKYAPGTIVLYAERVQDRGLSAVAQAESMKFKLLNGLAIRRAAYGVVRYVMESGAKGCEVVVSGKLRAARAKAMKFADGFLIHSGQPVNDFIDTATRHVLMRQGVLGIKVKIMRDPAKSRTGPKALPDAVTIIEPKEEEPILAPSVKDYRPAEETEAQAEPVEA

Chain of UniProt P04456 (P04456 whole entry): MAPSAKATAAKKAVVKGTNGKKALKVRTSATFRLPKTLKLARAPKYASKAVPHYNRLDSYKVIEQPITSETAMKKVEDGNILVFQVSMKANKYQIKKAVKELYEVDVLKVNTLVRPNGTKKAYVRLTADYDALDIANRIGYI

In the case of “eukaryotic release factor 1 (eRF1) (from UniProt P12385) sup45-2”, the percent of parent in assay [1] stood at 46%. In the case of “mutated eRF1 protein sup45-2 (from UniProt P12385 1-437) (natural protein)”, in the assay with uS3-GFP (S. cerevisiae), the co-precipitation relative to wild-type eRF1 is 0.25 of wild type and the co-precipitation relative to wild-type eRF1, with high copy RLI1 is more than 60%.
